Test results from publication doi:10.1101/2023.09.06.556503 (bioRxiv, 2023).

Assays:
[1] = target: Biotinylated SARS-CoV-2 (Wuhan) RBD, held on the SPR chip (SARS-CoV-2 (Wuhan), UniProt P0DTC2, biotin (EZ-Link Sulfo-NHS-LC-biotin); Lys15 within the N-terminal AviTag is named as the biotinylation site); test: SPR; conditions: both partners purified
[2] = target: SARS-CoV-2 (Wuhan) receptor-binding domain, soluble monovalent RBD (RBD-H) (SARS-CoV-2 (Wuhan), UniProt P0DTC2); test: SPR; conditions: both partners purified

| Binder | Kd [1] [nM] | binding result [1] | binding result [2] |
| --- | --- | --- | --- |
| IgG1 FD-11A antibody (antibody, V domains shown, also called FD-11A IgG; source: ExpiCHO, transfected, purified (MabSelect SuRe); copies: 2 + 2) VH: EVQLVESGGGVVQPGRSLRLSCAASGFTFSSYGMHWVRQAPGKGLEWVAVIWYDGSNKYYADSVKGRFTISRDNSKNTLYLQMNSLRAEDTAVYYCAKGPDILTGYYNYYYYGMDVWGQGTMVTVSS VL: QSVLTQPPSVSGAPGQRVTISCTGSSSNIGAGYDVHWYQQLPGTAPKLLIYGNSNRPSGVPDRFSGSKSGTSASLAITGLQAEDEADYYCQSYDSSLSGFYVVFGGGTKLTVL | 1230 | – | – |
| REGN10987 antibody (IgG1) (antibody, V domains shown) VH: QVQLVESGGGVVQPGRSLRLSCAASGFTFSNYAMYWVRQAPGKGLEWVAVISYDGSNKYYADSVKGRFTISRDNSKNTLYLQMNSLRTEDTAVYYCASGSDYGDYLLVYWGQGTLVTVSS VL: QSALTQPASVSGSPGQSITISCTGTSSDVGGYNYVSWYQQHPGKAPKLMIYDVSKRPSGVSNRFSGSKSGNTASLTISGLQSEDEADYYCNSLTSISTWVFGGGTKLTVL | – | binds | – |
| FI-3A antibody (IgG1) (antibody, V domains shown, source: ExpiCHO, transfected, purified (MabSelect SuRe); copies: 2 + 2) VH: EVQLLESGGGLIQPGGSLRLSCAASGFTVSSNYMSWVRQAPGKGLEWVSVIYSGGSTYYADSVKGRFTISRDNSKNTLYLQMNSLRAEDTAVYYCARDHVRPGMNIWGQGTMVTVSS VL: not shown | – | binds | binds |
| FD-5D antibody (IgG1) (antibody, V domains shown, source: ExpiCHO, transfected, purified (MabSelect SuRe); copies: 2 + 2) VH: EVQLVESGGGLVQPGGSLRLSCAASGFTFSSYSMNWVRQAPGKGLEWVSYISSSSSTIYYADSVKGRFTISRDNAKNSLYLQMNSLRAEDTAVYYCASPGGITAAGTSVLFGYYGMDVWGQGTTVTVSS VL: not shown | – | binds | binds |
| EY-6A antibody (IgG1) (antibody, V domains shown, copies: 2 + 2) VH: EVQLVESGGGVVQPGRSLRLSCAASAFTFSSYDMHWVRQAPGKGLEWVAVISYDGSNKYYADSVKGRFTISRDNSKNTLYLQMNSLRAEDTAVYYCAKDGGKLWVYYFDYWGQGTLVTVSS VL: not shown | – | binds | binds |
